Experimental data: patent US6693076
Values belong to the substance of their own block, whether it stands above or below them.

Key:
[1] = target: 125I-[Threonine59]IGF-I binding sites in adult rat brain sections (level of the cerebellum and brain stem) (rat); test: displacement of 0.01 nM 125I-[Thr59]IGF-I from rat brain sections; competitor at 400 pM
[2] = target: 125I-[Threonine59]IGF-I binding sites in adult rat brain sections (level of the cerebellum and brain stem) (rat); test: displacement of 0.01 nM 125I-[Thr59]IGF-I from rat brain sections; competitor at 4 pM
[3] = target: IGF-I receptor in homogenized adult rat brain tissue (cerebral cortex and cerebellum) (rat) (UniProt P24062); test: displacement of 20 pM 125I-[Thr59]IGF-I from homogenised rat brain tissue; competitor at 100 µM; SD 1.4
[4] = target: IGF-I receptor in homogenized adult rat brain tissue (cerebral cortex and cerebellum) (rat) (UniProt P24062); test: displacement of 20 pM 125I-[Thr59]IGF-I from homogenised rat brain tissue; competitor at 100 µM; SD 20
[5] = target: 125I-[Threonine59]IGF-I binding sites in adult rat brain sections (level of the cerebellum and brain stem) (rat); test: displacement of 0.01 nM 125I-[Thr59]IGF-I from rat brain sections; competitor at 200 nM
[6] = target: IGF-I receptor in homogenized adult rat brain tissue (cerebral cortex and cerebellum) (rat) (UniProt P24062); test: displacement of 20 pM 125I-[Thr59]IGF-I from homogenised rat brain tissue; competitor at 40 nM; SD 0.7
[7] = target: 125I-[Threonine59]IGF-I binding sites in adult rat brain sections (level of the cerebellum and brain stem) (rat); test: displacement of 0.01 nM 125I-[Thr59]IGF-I from rat brain sections; competitor at 400 nM
[8] = target: IGF-I receptor in homogenized adult rat brain tissue (cerebral cortex and cerebellum) (rat) (UniProt P24062); test: displacement of 20 pM 125I-[Thr59]IGF-I from homogenised rat brain tissue; competitor at 1 mM; SD 1.8
[9] = target: IGF-I receptor in homogenized adult rat brain tissue (cerebral cortex and cerebellum) (rat) (UniProt P24062); test: displacement of 20 pM 125I-[Thr59]IGF-I from homogenised rat brain tissue; competitor at 100 µM; SD 6
[10] = target: IGF-I receptor in homogenized adult rat brain tissue (cerebral cortex and cerebellum) (rat) (UniProt P24062); test: displacement of 20 pM 125I-[Thr59]IGF-I from homogenised rat brain tissue; competitor at 100 µM; SD 21

Chain of IGF-I receptor in homogenized adult rat brain tissue (cerebral cortex and cerebellum) (rat) (P24062 31-1370): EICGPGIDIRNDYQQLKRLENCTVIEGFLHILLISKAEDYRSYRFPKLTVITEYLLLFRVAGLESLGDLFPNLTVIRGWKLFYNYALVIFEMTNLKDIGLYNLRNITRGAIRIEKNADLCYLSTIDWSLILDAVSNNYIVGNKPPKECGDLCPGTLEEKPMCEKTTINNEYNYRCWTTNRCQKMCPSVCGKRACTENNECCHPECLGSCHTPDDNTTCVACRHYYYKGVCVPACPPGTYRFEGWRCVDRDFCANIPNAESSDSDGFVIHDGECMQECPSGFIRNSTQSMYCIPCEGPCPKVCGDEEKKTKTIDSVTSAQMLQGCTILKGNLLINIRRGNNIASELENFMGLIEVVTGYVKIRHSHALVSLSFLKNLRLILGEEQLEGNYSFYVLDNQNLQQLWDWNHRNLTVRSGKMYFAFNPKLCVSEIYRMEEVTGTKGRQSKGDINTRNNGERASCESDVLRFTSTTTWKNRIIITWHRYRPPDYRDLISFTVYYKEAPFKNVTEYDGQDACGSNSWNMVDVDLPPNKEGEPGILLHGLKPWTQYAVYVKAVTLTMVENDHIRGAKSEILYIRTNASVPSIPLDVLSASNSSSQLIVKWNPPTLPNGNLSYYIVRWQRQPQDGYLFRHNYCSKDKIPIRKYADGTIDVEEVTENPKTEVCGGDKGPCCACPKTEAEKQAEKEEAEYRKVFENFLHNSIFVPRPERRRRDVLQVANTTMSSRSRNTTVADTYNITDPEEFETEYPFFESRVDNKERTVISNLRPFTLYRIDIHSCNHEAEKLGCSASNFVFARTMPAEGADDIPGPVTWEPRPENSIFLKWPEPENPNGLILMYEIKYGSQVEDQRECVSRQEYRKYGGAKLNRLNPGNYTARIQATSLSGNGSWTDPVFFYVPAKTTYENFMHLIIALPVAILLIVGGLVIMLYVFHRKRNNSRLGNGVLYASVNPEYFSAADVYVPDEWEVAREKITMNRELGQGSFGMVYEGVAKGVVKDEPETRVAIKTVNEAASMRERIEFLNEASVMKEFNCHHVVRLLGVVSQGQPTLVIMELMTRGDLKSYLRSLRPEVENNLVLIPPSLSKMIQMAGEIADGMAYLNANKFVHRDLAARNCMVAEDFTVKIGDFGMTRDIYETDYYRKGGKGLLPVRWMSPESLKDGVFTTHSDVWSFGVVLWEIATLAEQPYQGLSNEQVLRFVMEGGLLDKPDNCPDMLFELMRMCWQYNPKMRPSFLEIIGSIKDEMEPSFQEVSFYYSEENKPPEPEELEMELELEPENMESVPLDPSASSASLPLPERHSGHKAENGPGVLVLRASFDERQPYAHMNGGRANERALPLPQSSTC
Chain of IGF-II (Somatomedin-A) (P01344 25-91): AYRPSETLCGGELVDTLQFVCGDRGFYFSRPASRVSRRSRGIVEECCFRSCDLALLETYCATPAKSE

- percent max. bound [1]: 30%
- percent max. bound [2]: 91%
Substance: Human IGF-I (Somatomedin-C) (from UniProt P05019 49-118) (ligand)

- percent max. bound [3]: 94%
Substance: IGF-I(30-41) (peptide)

- percent max. bound [4]: 83%
Substance: IGF-I(62-70) (peptide)

- percent max. bound [5]: 50%
- percent max. bound [6]: 92.1%
- percent max. bound [7]: 23%
Substance: IGF-II (Somatomedin-A) (from UniProt P01344 25-91) (ligand)

- percent max. bound [8]: 92%
Substance: IGF-II(33-40) (peptide)

- percent max. bound [9]: 94%
Substance: IGF-II(54-67) (peptide)

- percent max. bound [10]: 83%
Substance: IGF-II(62-67) (peptide)
